Laboratory results reported in article PMC7891324.

Molecular target: microtubules assembled from highly purified (MAP-free) porcine brain tubulin (porcine) (UniProt P02550)
Test: co-sedimentation; MTs assembled from 25 µM PC-purified (MAP-free) porcine brain tubulin in PEM (100 mM Pipes pH 6.8, 2 mM EGTA, 1 mM MgCl2) with 1 mM GTP, 10% glycerol, 1 mM DTT, 0.5% Triton X-100, 1 h 37°C; 2.5 µM recombinant plectin fragment added for 60 min; 45 000 g 30 min 37°C; supernatant and pellet by SDS-PAGE, Coomassie, densitometry

percent co-sedimented with MTs [%] | Substance
52 | plectin fragment P1c(2α3α)-8 (exons 1c(2α3α)-8), untagged (domain or fragment)
36.5 | plectin fragment P2(2α3α)-8 (exons 2(2α3α)-8), untagged (domain or fragment)
